# Test results published in the RNAGym collection of RNA variant scans (doi:10.1093/molbev/msab373).
# B1: Azoarcus group I ribozyme (parent)
# chain: GUGCCUUGCGCCGGGAAACCACGCAAGGGAUGGUGUCAAAUUCGGCGAAACCUAAGCGCCCGCCCGGGCGUAUGGCAACGCCGAGCCAAGCUUCGGCGCCUGCGCCGAUGAAGGUGUAGAGACUAGACGGCACCCACCUAAGGCAAACGCUAUGGUGAAGGCAUAGUCCAGGGAGUGGCGAAAGUCACACAAACCGG
# Variants of: B1
# Experiment: reverse-splicing fitness (ratio to wild type); higher = more active; in vitro selection; Mg2+ level not given
# Procedure, shortened: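 An in vitro group I ribozyme library with randomized positions was T7-transcribed and gel-purified. In triplicate, 10 pmol RNA in EPPS pH 7.5 was reacted with 50 pmoles of a 30-nt RNA substrate for 1 h at 37 °C across several added MgCl2 levels (1–48 mM), then stopped with EDTA. Products were reverse transcribed from a substrate-complementary primer, PCR-amplified and sequenced (HiSeq 4000). Fitness is a variant's read proportion after selection over that before, normalised to wild type.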
row,Variant,reverse-splicing fitness
1,C82G A120U A145C C150U U176G,0.00871
2,C82G A120U A145C C150U U176C,0.0197
3,C82G A120U A145U C150U C169G,0.00513
4,C82G A120U A145U C150U C169U,0.00488
5,C82G A120U A145U C150U C169A,0.00259
6,C82G A120U A145G C150A C169A U176A,0.00645
7,C82G A120U A145G C150A C169A U176C,0.00287
8,C82G A120U A145G C150A C169A U176G,0.00256
9,C82G A120U A145U C150A C169U,0.00221
10,C82G A120U A145U C150A C169A,0.00187
11,C82G A120U A145U C150A C169G,0.00252
12,C82G A120U A145G C150G C169U U176G,0.00451
13,C82G A120U A145G C150G C169U U176C,0.00701
14,C82G A120U A145G C150G C169U U176A,0.00829
15,C82G A120U A145U C150A C169G U176A,0.00221
16,C82G A120U A145U C150A C169G U176G,0.00134
17,C82G A120U A145U C150A C169G U176C,0.00192
18,C82G A120U A145G U176C,0.11
19,C82G A120U A145G U176A,0.0724
20,C82G A120U A145G U176G,0.0134
21,C82G A120G C150G C169A U176C,0.0102

row,Variant,reverse-splicing fitness
1,C82G A120G C150G C169A U176A,0.0109
2,C82G A120G C150G C169A U176G,0.00588
3,C82G A120U C169U,0.00719
4,C82G A120U C169A,0.00257
5,C82G A120U C169G,0.00666
6,C82G A120G C150A U176G,0.0105
7,C82G A120G C150A U176C,0.0195
8,C82G A120G C150A U176A,0.0119
9,C82G A120U A145G C150G C169G U176C,0.00637
10,C82G A120U A145G C150G C169G U176G,0.00411
11,C82G A120U A145G C150G C169G U176A,0.00901
12,C82G A120U C150G C169U,0.00456
13,C82G A120U C150G C169G,0.0053
14,C82G A120U C150G C169A,0.00734
15,C82G A120G C169G,0.0529
16,C82G A120G C169U,0.0237
17,C82G A120G C169A,0.0302
18,C82G A120U A145G C150G C169A U176G,0.00485
19,C82G A120U A145G C150G C169A U176A,0.012
20,C82G A120U A145G C150G C169A U176C,0.00809
21,C82G A120G A145U C169G U176C,0.0227

row,Variant,reverse-splicing fitness
1,C82G A120G A145U C169G U176G,0.00374
2,C82G A120G A145U C169G U176A,0.0157
3,C82G A120G C150U C169U U176A,0.023
4,C82G A120G C150U C169U U176C,0.0203
5,C82G A120G C150U C169U U176G,0.00651
6,C82G A120U A145G C169U U176C,0.00453
7,C82G A120U A145G C169U U176G,0.00154
8,C82G A120U A145G C169U U176A,0.00419
9,C82G A120U A145U C150U U176G,0.0126
10,C82G A120U A145U C150U U176C,0.0591
11,C82G A120U A145U C150U U176A,0.0449
12,C82G A120G C150U C169G,0.0318
13,C82G A120G C150U C169A,0.0193
14,C82G A120G C150U C169U,0.0164
15,C82G A120U,0.251
16,C82G A120U C150U C169G U176C,0.00376
17,C82G A120U C150U C169G U176G,0.00205
18,C82G A120U C150U C169G U176A,0.00481
19,C82G A120U A145U C169G U176A,0.00234
20,C82G A120U A145U C169G U176C,0.00292
21,C82G A120U A145U C169G U176G,0.00119

row,Variant,reverse-splicing fitness
1,C82G A120U A145C C150G C169U U176G,0.00182
2,C82G A120U A145C C150G C169U U176A,0.00213
3,C82G A120U A145C C150G C169U U176C,0.00176
4,C82G A120U A145U C150U,0.131
5,C82G A120U A145U C150G,0.0173
6,C82G A120U A145U C150A,0.0151
7,C82G A120U A145C C150G U176G,0.00292
8,C82G A120U A145C C150G U176C,0.00907
9,C82G A120U A145C C150G U176A,0.00741
10,C82G A120G A145U C169G,0.0523
11,C82G A120G A145U C169A,0.0302
12,C82G A120G A145U C169U,0.0235
13,C82G A120U A145G C150U C169U U176C,0.00469
14,C82G A120U A145G C150U C169U U176A,0.00444
15,C82G A120U A145G C150U C169U U176G,0.00216
16,C82G A120U A145G C150A C169G U176A,0.00555
17,C82G A120U A145G C150A C169G U176C,0.00422
18,C82G A120U A145G C150A C169G U176G,0.00199
19,C82G A120G C150U C169A U176A,0.0184
20,C82G A120G C150U C169A U176C,0.0189
21,C82G A120G C150U C169A U176G,0.00527
